Test results taken from patent US20060272037A1 (JULIUS MAXIMILIANS UNIVERSITAT, published 2006).

What was measured:
[1] = target: PTH receptor-cam8 "chameleon" (human); assay: cell-based or functional assay
[2] = target: T1, PTH receptor-cam8 "chameleon" (human); assay: competition ligand binding, receptor stably expressed in HEK293 cells
T1 construct: Stably expressed in HEK293 cells; also tested in membranes made from these cells; also called PTHR-cam; PTHR-cam8
T1 sequence (chain, as listed by the source limits assumed): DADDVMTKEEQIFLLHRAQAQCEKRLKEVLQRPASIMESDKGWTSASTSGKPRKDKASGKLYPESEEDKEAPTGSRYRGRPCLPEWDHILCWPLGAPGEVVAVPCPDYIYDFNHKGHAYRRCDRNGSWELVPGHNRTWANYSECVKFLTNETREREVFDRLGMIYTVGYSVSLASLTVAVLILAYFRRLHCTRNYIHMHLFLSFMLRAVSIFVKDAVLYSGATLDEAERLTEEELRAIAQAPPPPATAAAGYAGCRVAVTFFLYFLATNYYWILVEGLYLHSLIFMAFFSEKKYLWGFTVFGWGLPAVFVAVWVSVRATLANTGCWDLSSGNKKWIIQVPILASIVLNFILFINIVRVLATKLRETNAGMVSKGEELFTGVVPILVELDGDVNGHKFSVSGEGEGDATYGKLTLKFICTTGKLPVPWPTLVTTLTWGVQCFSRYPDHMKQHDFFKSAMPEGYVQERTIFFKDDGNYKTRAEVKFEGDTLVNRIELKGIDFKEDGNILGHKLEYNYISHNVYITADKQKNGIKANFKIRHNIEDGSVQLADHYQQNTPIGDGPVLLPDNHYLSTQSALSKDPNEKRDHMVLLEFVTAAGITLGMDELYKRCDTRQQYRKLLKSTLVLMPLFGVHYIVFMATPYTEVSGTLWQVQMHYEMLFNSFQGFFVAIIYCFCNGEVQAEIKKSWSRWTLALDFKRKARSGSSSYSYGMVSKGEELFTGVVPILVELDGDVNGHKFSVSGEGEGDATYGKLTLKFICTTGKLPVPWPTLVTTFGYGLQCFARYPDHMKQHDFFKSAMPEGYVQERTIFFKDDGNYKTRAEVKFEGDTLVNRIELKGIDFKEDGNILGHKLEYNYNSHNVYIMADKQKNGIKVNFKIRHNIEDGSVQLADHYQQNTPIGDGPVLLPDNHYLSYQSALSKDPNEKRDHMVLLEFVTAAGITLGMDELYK

B1: parathyroid hormone (PTH) (peptide, UniProt P01270 32-65, looked up)
peptide: SVSEIQLMHNLGKHLNSMERVEWLRKKLQDVHNF
- EC50 of signalling to adenylyl cyclase [1]: 12.8 nM
- Ki [2]: 15.5 nM
